Assay results reported in article doi:10.1101/197558 (bioRxiv, 2017).
Where two headings read alike, the source gives them in different places.

T1: full-length C. elegans MEI-1 (C. elegans, UniProt P34808 1-472)
T1 sequence (looked up): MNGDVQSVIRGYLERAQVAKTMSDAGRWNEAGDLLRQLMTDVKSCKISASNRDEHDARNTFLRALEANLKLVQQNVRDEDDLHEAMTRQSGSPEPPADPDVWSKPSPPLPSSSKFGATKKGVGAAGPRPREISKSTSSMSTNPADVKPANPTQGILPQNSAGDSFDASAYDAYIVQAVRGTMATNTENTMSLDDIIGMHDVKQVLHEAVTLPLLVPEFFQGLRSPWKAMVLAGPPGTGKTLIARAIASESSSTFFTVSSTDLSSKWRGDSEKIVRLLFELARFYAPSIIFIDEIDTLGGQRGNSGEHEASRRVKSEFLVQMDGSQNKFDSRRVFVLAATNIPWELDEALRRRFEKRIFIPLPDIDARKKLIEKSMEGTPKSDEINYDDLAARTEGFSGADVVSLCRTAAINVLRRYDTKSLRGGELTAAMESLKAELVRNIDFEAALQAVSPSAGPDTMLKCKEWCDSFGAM

B1: full length human KATNAL1 (E308Q) (enzyme, UniProt Q9BW62 1-490, looked up)
chain: MNLAEICDNAKKGREYALLGNYDSSMVYYQGVMQQIQRHCQSVRDPAIKGKWQQVRQELLEEYEQVKSIVSTLESFKIDKPPDFPVSCQDEPFRDPAVWPPPVPAEHRAPPQIRRPNREVRPLRKEMAGVGARGPVGRAHPISKSEKPSTSRDKDYRARGRDDKGRKNMQDGASDGEMPKFDGAGYDKDLVEALERDIVSRNPSIHWDDIADLEEAKKLLREAVVLPMWMPDFFKGIRRPWKGVLMVGPPGTGKTMLAKAVATECGTTFFNVSSSTLTSKYRGESEKLVRLLFEMARFYAPTTIFIDQIDSICSRRGTSDEHEASRRVKSELLIQMDGVGGALENDDPSKMVMVLAATNFPWDIDEALRRRLEKRIYIPLPTAKGRAELLKINLREVELDPDIQLEDIAEKIEGYSGADITNVCRDASLMAMRRRINGLSPEEIRALSKEELQMPVTKGDFELALKKIAKSVSAADLEKYEKWMVEFGSA

Columns and labels:
Assay in all cases: SEC-MALS
[1] = molecular target: T1, full-length C. elegans MEI-1
SEC-MALS [2] = molecular target: the molecule itself
SEC-MALS [3] = molecular target: the molecule itself; remark: listed apart in the source
[4] = molecular target: full length human KATNAL1 (human, UniProt Q9BW62 1-490)
[5] = molecular target: B1

| Binder | stoichiometry N (SEC-MALS [2]) | stoichiometry N (SEC-MALS [3]) | other results |
| --- | --- | --- | --- |
| full-length C. elegans MEI-2 (natural protein, UniProt O44740 1-280, looked up) MSGLDDRKKLTHAKNRKPLNDIPKSAENRPNTRSTSSRRGAEKDVPITFIGSSRTVKADLPEFTNTRSRRPLHSESKKELSRNPVSRGEEHSSSLPKSSPESSVSVMSSNASLWSACTEEVNKIGVCAKRESRNLRVYKMKSFTSNMEQILSNDNQLAPTVIRILNSRNSWCLNSCHACLTFIMENITSDNYGKRSACLKALASITNSLLDTIIGFASTKTRRIGVDVVAEERAAKATECIHNFRKIVKNRDKIYKQIDQETIYKLDAILERLKKVSSHK | – | – | binding result [1]: binds |
| C. elegans MEI-1/MEI-2 complex (full-length MEI-1 with full-length MEI-2) (complex) chain 1: MNGDVQSVIRGYLERAQVAKTMSDAGRWNEAGDLLRQLMTDVKSCKISASNRDEHDARNTFLRALEANLKLVQQNVRDEDDLHEAMTRQSGSPEPPADPDVWSKPSPPLPSSSKFGATKKGVGAAGPRPREISKSTSSMSTNPADVKPANPTQGILPQNSAGDSFDASAYDAYIVQAVRGTMATNTENTMSLDDIIGMHDVKQVLHEAVTLPLLVPEFFQGLRSPWKAMVLAGPPGTGKTLIARAIASESSSTFFTVSSTDLSSKWRGDSEKIVRLLFELARFYAPSIIFIDEIDTLGGQRGNSGEHEASRRVKSEFLVQMDGSQNKFDSRRVFVLAATNIPWELDEALRRRFEKRIFIPLPDIDARKKLIEKSMEGTPKSDEINYDDLAARTEGFSGADVVSLCRTAAINVLRRYDTKSLRGGELTAAMESLKAELVRNIDFEAALQAVSPSAGPDTMLKCKEWCDSFGAM chain 2: MSGLDDRKKLTHAKNRKPLNDIPKSAENRPNTRSTSSRRGAEKDVPITFIGSSRTVKADLPEFTNTRSRRPLHSESKKELSRNPVSRGEEHSSSLPKSSPESSVSVMSSNASLWSACTEEVNKIGVCAKRESRNLRVYKMKSFTSNMEQILSNDNQLAPTVIRILNSRNSWCLNSCHACLTFIMENITSDNYGKRSACLKALASITNSLLDTIIGFASTKTRRIGVDVVAEERAAKATECIHNFRKIVKNRDKIYKQIDQETIYKLDAILERLKKVSSHK | 2 | – | – |
| wild-type KATNAL1/B1-con80 complex (full length human KATNAL1 with the con80 domain, residues 411-655, of human KATNB1) (complex) chain 1: MNLAEICDNAKKGREYALLGNYDSSMVYYQGVMQQIQRHCQSVRDPAIKGKWQQVRQELLEEYEQVKSIVSTLESFKIDKPPDFPVSCQDEPFRDPAVWPPPVPAEHRAPPQIRRPNREVRPLRKEMAGVGARGPVGRAHPISKSEKPSTSRDKDYRARGRDDKGRKNMQDGASDGEMPKFDGAGYDKDLVEALERDIVSRNPSIHWDDIADLEEAKKLLREAVVLPMWMPDFFKGIRRPWKGVLMVGPPGTGKTMLAKAVATECGTTFFNVSSSTLTSKYRGESEKLVRLLFEMARFYAPTTIFIDEIDSICSRRGTSDEHEASRRVKSELLIQMDGVGGALENDDPSKMVMVLAATNFPWDIDEALRRRLEKRIYIPLPTAKGRAELLKINLREVELDPDIQLEDIAEKIEGYSGADITNVCRDASLMAMRRRINGLSPEEIRALSKEELQMPVTKGDFELALKKIAKSVSAADLEKYEKWMVEFGSA chain 2: AATAKEAAKPSPAMDVQFPVPNLEVLPRPPVVASTPAPKAEPAIIPATRNEPIGLKASDFLPAVKIPQQAELVDEDAMSQIRKGHDTMCVVLTSRHKNLDTVRAVWTMGDIKTSVDSAVAINDLSVVVDLLNIVNQKASLWKLDLCTTVLPQIEKLLQSKYESYVQTGCTSLKLILQRFLPLITDMLAAPPSVGVDISREERLHKCRLCYKQLKSISGLVKSKSGLSGRHGSTFRELHLLMASLD | – | 2 | – |
| B1 | – | 6 | – |
| KATNAL1 (E308Q)/B1-con80 complex (complex, human) chain 1: MNLAEICDNAKKGREYALLGNYDSSMVYYQGVMQQIQRHCQSVRDPAIKGKWQQVRQELLEEYEQVKSIVSTLESFKIDKPPDFPVSCQDEPFRDPAVWPPPVPAEHRAPPQIRRPNREVRPLRKEMAGVGARGPVGRAHPISKSEKPSTSRDKDYRARGRDDKGRKNMQDGASDGEMPKFDGAGYDKDLVEALERDIVSRNPSIHWDDIADLEEAKKLLREAVVLPMWMPDFFKGIRRPWKGVLMVGPPGTGKTMLAKAVATECGTTFFNVSSSTLTSKYRGESEKLVRLLFEMARFYAPTTIFIDQIDSICSRRGTSDEHEASRRVKSELLIQMDGVGGALENDDPSKMVMVLAATNFPWDIDEALRRRLEKRIYIPLPTAKGRAELLKINLREVELDPDIQLEDIAEKIEGYSGADITNVCRDASLMAMRRRINGLSPEEIRALSKEELQMPVTKGDFELALKKIAKSVSAADLEKYEKWMVEFGSA chain 2: AATAKEAAKPSPAMDVQFPVPNLEVLPRPPVVASTPAPKAEPAIIPATRNEPIGLKASDFLPAVKIPQQAELVDEDAMSQIRKGHDTMCVVLTSRHKNLDTVRAVWTMGDIKTSVDSAVAINDLSVVVDLLNIVNQKASLWKLDLCTTVLPQIEKLLQSKYESYVQTGCTSLKLILQRFLPLITDMLAAPPSVGVDISREERLHKCRLCYKQLKSISGLVKSKSGLSGRHGSTFRELHLLMASLD | 2 | 6 | – |
| con80 domain (residues 411-655) of human KATNB1 (domain or fragment, UniProt Q9BVA0 411-655, looked up) AATAKEAAKPSPAMDVQFPVPNLEVLPRPPVVASTPAPKAEPAIIPATRNEPIGLKASDFLPAVKIPQQAELVDEDAMSQIRKGHDTMCVVLTSRHKNLDTVRAVWTMGDIKTSVDSAVAINDLSVVVDLLNIVNQKASLWKLDLCTTVLPQIEKLLQSKYESYVQTGCTSLKLILQRFLPLITDMLAAPPSVGVDISREERLHKCRLCYKQLKSISGLVKSKSGLSGRHGSTFRELHLLMASLD | – | – | binding result [4]: binds; binding result [5]: binds |
